The supplement of paper PMC9170038

Assays:
MS2 coat protein [1] = test: apparent KD of MS2 coat protein; higher = weaker reporter binding; settings: Eterna round: R101
Procedure: (§1)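 RNA-MaP: designed FMN/MS2 RNA switches (84 nt design region) are transcribed on-chip within common flanks and titrated with SNAP-549-labelled MS2 coat protein (about 1-3000 nM) in 100 mM Tris pH 7.5, 80 mM KCl, 4 mM MgCl2, without or with 200 uM FMN. Median apparent KD per design; activation ratio = KD,OFF / KD,ON.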

MS2 coat protein [2] = test: apparent KD of MS2 coat protein; designed switch direction (-1 OFF switch, 1 ON switch): 1; higher = weaker reporter binding; settings: Eterna round: R98
Procedure: as §1

MS2 coat protein [3] = test: apparent KD of MS2 coat protein, switch OFF state (with FMN for OFF switches, without FMN for ON switches); designed switch direction (-1 OFF switch, 1 ON switch): 1; higher = weaker reporter binding; settings: FMN input: 0 or 200 uM; Eterna round: R93 (includes R88 designs)
Method in brief: (§2)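 The designed RNA switches were transcribed on-chip from Illumina sequencing clusters. In 100 mM Tris-HCl pH 7.5, 80 mM KCl and 4 mM MgCl2, without or with constant ligand, they were titrated with SNAP-549-labelled MS2 coat protein from 0.7 or 1.5 nM to 3 µM in twofold steps. Apparent KD is the per-design median of normalised cluster binding-curve fits.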

MS2 coat protein [4] = test: apparent KD of MS2 coat protein, switch ON state; designed switch direction (-1 OFF switch, 1 ON switch): 1; higher = weaker reporter binding; settings: FMN input: 0 or 200 uM; Eterna round: R93 (includes R88 designs)
Method in brief: as §2

| Sequence | apparent KD of MS2 coat protein (MS2 coat protein [1]; input ligand: FMN 200 uM) [nM] | apparent KD of MS2 coat protein (MS2 coat protein [1]; input ligand: none) [nM] | apparent KD of MS2 coat protein (MS2 coat protein [2]; input ligand: FMN 200 uM) [nM] | apparent KD of MS2 coat protein (MS2 coat protein [2]; input ligand: none) [nM] | also measured |
| --- | --- | --- | --- | --- | --- |
| CUUACUUUGUAGAAGGGUGACAUGAGGAUCACCCAUGUGCGUGGCCUGAAAGACCAGGGUACGCCACAGGAUAUACAAAGUAAG [Esatatina] (puzzle (switch architecture): Inverted Same State NG 2) | 26.1 | 15.3 |  |  |  |
| ACAGGUCGUGAGAAGGAGAGUGGCACCGUCGAAAGACGGUGCAACUAGAAACCUAGAGGAUCACCCUAGGAUAUCACGACCUGA [#SharedSequence - IExNG2: 11] (puzzle (switch architecture): Inverted Exclusion NG 2) | 6.46 | 6.32 |  |  |  |
| CACCUAAAUCCUAGAGGAUCACCCUAGGAUAUCACCGUCGAGGUGCCAUAAUGGCACCUCGACGGUGAGAAGGAGGGUAAAUAA [#SharedSequence - SLExNG3: 9] (puzzle (switch architecture): Small Loop Exclusion NG 3) | 6.41 | 5.82 |  |  |  |
| UCACUCACGUUAGGAUAUGGAUCGGAAAACGAUCCAGAAGGAACCUGCAAACCUGAGGAUCACCCAGGUUCCAAUAACGAGUGA [SameSame 7 - Jieux - Same State NG 1] |  |  | 259 | 368 |  |
| CGGAUGCAAAUAAAACAUGAGGAUCACCCAUGUGAGUCUCAUGAGGAUAUGCAGGUCAAAGACUUGCAGAAGGCAUGGCGUCCG [Mat - Same State NG 3 - JL Mod - D71] |  |  | 107 | 1840 |  |
| AGAACAUGAGGAUCACCCAUGUUAAGGUCGGUAAAUAAGGGUGAGGAUAUGCUUAAAAUAAGGUAGCAGAAGGUGCUUGGUGCA [SameState #76 NG3] |  |  | 146 | 163 |  |
| GCAGAAGGUGCAGAGGAUCACCCUGUAAGGAUAUGCAUUAGCAAGGAUAUACAGAGGAUCACCCUGUAGAAGGUGCACUACUCU [pwkr2 ssNG3 DX.2] |  |  | 420 | 2070 |  |
| UGUUUGAGCAUAGGAUAUACUGGGAAGGUCCACAUGAGGAUCACCCAUGUAGAGGCUGUUAGACAGUAGAAGGGUGAUCCGAUA [Zariatbege] |  |  | 410 | 9.94 |  |
| GCGGGCCUCACAGGAUAUCUGGUCCCGACAUGAGGAUCACCCAUGUAGGGCAGCUUAAGAAUGCCAGAGAAGGGUGACCAAUAU [Xexemaeron] |  |  | 102 | 315 |  |
| CAGCAAUUCUUAGGAUAUGCUCAGGAAUACUGAGCAGAAGGAAGAUAUACCUGAGGAUCACCCAGGUUAAACUGAAGCUGAAAA [Same State NG1 - A3C, U17G Submission 7A] |  |  | 28.5 | 21.2 |  |
| GUCCCUACAUGAGGAUCACCCAUGUGGGCGGUAAGGAGCCCACAGGAUAUGCGAAGGAGGACAUAGCAGAAGGGUGGUGUUCAG [Erenerbe] (puzzle (switch architecture): Same State NG 3) | 33.5 | 308 |  |  |  |
| CUUAGUUUGUAGAAGGGUGACAUGAGGAUCACCCAUGUGCGUAGCCUGAAAGACCAGGGUACGCCACAGGAUAUACAAAGUAAG [Onenisa] (puzzle (switch architecture): Inverted Same State NG 2) | 84.9 | 57.4 |  |  |  |
| CACGUCCACACAGGAUAUGCUGGACUUUGUCCAGCAGAAGGGUGACAACAUGAGGAUCACCCAUGUAGGACGUGUAUAUUUAAG [Mat - Same State NG 1 - Eli mod - D100] |  |  | 188 | 2090 |  |
| CUGAAGUCUGACCCUCGAAACAUGAGGAUCACCCAUGUAGUCAGAAGGCGAUUGUGAGCAGGAAUCGAGGAUAUGAACUAGUUU [EternaBot1300] (puzzle (switch architecture): Inverted Exclusion NG 3) | 9.99 |  |  |  |  |
| AAUAAACAAUAAAAGACUGGAGCAAACUUUUGAGGAUCACCCAGAAGGCGUCACCUAAUAGGUGACGAGGAUAUGGAGCUCCAG [#SharedSequence IExNG# - 4] (puzzle (switch architecture): Inverted Exclusion NG 3) | 135 | 17.3 |  |  |  |
| GUUAUCUCAUGUUCGACGGACAUGAGGAUCACCCAUGUACCUUAGGAUAUUGAUGAAAUAUGGCGCAAGAAGGAAGGUAACGCU [EternaBot964] (puzzle (switch architecture): Exclusion NG 3) | 7.51 |  |  |  |  |
| AAAACAUGAGGAUCACCCAUGUAAAGAACGGUUAAUAAAAGUGAGGAUAUACAAAAUUUUAUAUAGUAGAAGGCACUGGGUACA [JR_SSNG3_Sub008] |  |  | 23.9 | 20.6 |  |

| Sequence | apparent KD of MS2 coat protein (MS2 coat protein [1]; input ligand: FMN 200 uM) [nM] | apparent KD of MS2 coat protein (MS2 coat protein [1]; input ligand: none) [nM] | apparent KD of MS2 coat protein (MS2 coat protein [2]; input ligand: FMN 200 uM) [nM] | apparent KD of MS2 coat protein (MS2 coat protein [2]; input ligand: none) [nM] | also measured |
| --- | --- | --- | --- | --- | --- |
| ACACGUCGUGAGAAGGAGGAUCACCCUUUCGAAAGAAAUAGCCACCGUGAAAACGGUGGCAAAUCCUAGGAUAUCACGACGUGA [#SharedSequence - IExNG2: 4] (puzzle (switch architecture): Inverted Exclusion NG 2) | 41.8 | 551 |  |  |  |
| ACAUACUUUCGAGGAUAUCGGUGAUAAAUUUGACGAGAAGGCGAUAAAAGAUAUAAUCUUAUAGACAUGAGGAUCACCCAUGUA [JR_SSNG1_Sub015] |  |  | 36.8 | 43.3 |  |
| AAUAAUUCUCAAGGAUAUCAGUGGCAAAGCCACUGAGAAGGUGAGGAUCACCCACCUACGUGACGCUGGAAACAGCGUCACGAA [#SharedSequence ExNG1 - 34] (puzzle (switch architecture): Exclusion NG 1) | 164 | 30.5 |  |  |  |
| CACACAUGAGGAUCACCCAUGUCGUGGGCGGAAAACUGUGCACAGGAUAUGGUGAGGGCAACUCACCAGAAGGGUGGUCAGGAA [Zaenen] |  |  | 63.1 | 100 |  |
| CGUGUGGCAUGAGGAUAUGGUCAGCUUUGCUGACCAGAAGGCAUGUCAAUAGACAUGAGGAUCACCCAUGUAGUUAACACACGA [Mat - Same State NG 1 - JL Mod - D23] |  |  | 44 | 575 |  |
| AAGAAGCUCACAGGAUAUCAGUAUAUGCUAUCUAGCGUAUUAAUGAACUGCUGAGAAGGGUGAGACAUGAGGAUCACCCAUGUA [Angeon] (puzzle (switch architecture): Small Loop Same State NG 1) | 54 | 120 |  |  |  |
| AAAUAAAUUGAAGGAUAUGACCCUCGAGGUGACUAAAAGUCACCUCGAGGGUCAGAAGGUCGAGGAUCACCCGACCUAAAUAAA [#SharedSequence SLExNG1: 4-1] (puzzle (switch architecture): Small Loop Exclusion NG 1) | 8.19 | 7.16 |  |  |  |
| GCUGCUAUCGCAGGAUAUUACAUGGGAAAGAAUACAUGAGGAUCACCCAUGUAAAAGAUCAUAAAUAAGAAGGGCGAUAGCAGC [Lame State 6 - Jieux - Same State NG 2] |  |  | 159 | 774 |  |
| GGUCGUCACAUCUACAUGAGGAUCACCCAUGUCGAAAGACAUGAGGAUAUGCAUCCUAAUUGGAUGCAGAAGGCAUGGACGACC [Mat - Same State NG 3 - JL Mod - D22] |  |  | 65.1 | 1920 |  |
| AAAGAUUUUUAAGGAUAUCAGUGGCAAAGCCACUGAGAAGGUGAGGAUCACCCACCUACGUGACCCUGGAAACAGGGUCACGAA [#SharedSequence - ExNG1-14] (puzzle (switch architecture): Exclusion NG 1) | 14.7 | 13.2 |  |  |  |
| CACACAUGGUGAGGAUAUGCAAAGGAUCACCUUGUAGAAGGCAUCAGGGUAGAAGGUGCAAGGAUCACCUGUAAGGAUAUAUCC [pwkr2 ssNG1 DX.24] |  |  | 395 | 1210 |  |
| GCUGUCGCAUGAGGAUAUGGUCAGCUUUGCUGACCAGAAGGCAUGUCGAUAGACAUGAGGAUCACCCAUGUAGUAAAGACAGCA [jl-sng1-2.08 jl mod] |  |  | 66.6 | 693 |  |
| GUCCCUACAUGAGGAUCACCCAUGUGGGCAGUAAGAAGCCCACAGGAUAUGCGAAGGAGGACAUAGCAGAAGGGUGGUGUUUAG [Reaninveri] (puzzle (switch architecture): Same State NG 3) | 138 | 625 |  |  |  |
| CAUGUCCUCACAGGAUAUGCUGGACUUUGUCCAGCAGAAGGGUGAACAUGAGGAUCACCCAUGUUGUGGACAUGUAUAUUUAAU [Denovo 12] |  |  | 526 | 394 |  |
| UUACGUCCCGUUUACAUGAGGAUCACCCAUGUCGAAAGAACCGAGGAUAUGCUACCUAGUUGGUAGCAGAAGGCGGAAACGUCG [salish99_SSNG3_r02_008] |  |  | 42.3 | 25.9 |  |
| GGCAGCCCUCAGAAGGGAGUGCGAUAAUCGCACUCAGGAUAUGAGGAUCACCCAUAUCAAGCUGCCACUGAGGCAAAGCCUCAG [#SharedSequence - IEx NG 1-1] (puzzle (switch architecture): Inverted Exclusion NG 1) | 57.4 | 12.1 |  |  |  |
| GAAAAACAUGAGGAUCACCCAUGUGGAAAUAUGGGAGGAUAUACAAAGACGUAAGUCAAAGUAGAAGGCCUAAAAG [Garnet 94] |  |  |  |  | apparent KD of MS2 coat protein (MS2 coat protein [3]): 177 nM; apparent KD of MS2 coat protein (MS2 coat protein [4]): 30.8 nM |
